# Measurements from patent US20190134064A1, “SELECTIVELY DEGLYCOSYLATED VITAMIN D-BINDING PROTEIN (GCMAF), CHOLECALCIFEROL (CALCIOL), AND PRODUCTION METHOD” (HG PHARMA GMBH, priority 2016, published 2019).
# B1: GcMAF-calcitriol: comparative complex; same production method carried out with calcitriol instead of cholecalciferol (protein, UniProt P02774 17-474, looked up)
# Vitamin D-binding protein: LERGRDYEKNKVCKEFSHLGKEDFTSLSLVLYSRKFPSGTFEQVSQLVKEVVSLTEACCAEGADPDCYDTRTSALSAKSCESNSPFPVHPGTAECCTKEGLERKLCMAALKHQPQEFPTYVEPTNDEICEAFRKDPKEYANQFMWEYSTNYGQAPLSLLVSYTKSYLSMVGSCCTSASPTVCFLKERLQLKHLSLLTTLSNRVCSQYAAYGEKKSRLSNLIKLAQKVPTADLEDVLPLAEDITNILSKCCESASEDCMAKELPEHTVKLCDNLSTKNSKFEDCCQEKTAMDVFVCTYFMPAAQLPELPDVELPTNKDVCDPGNTKVMDKYTFELSRRTHLPEVFLSKVLEPTLKSLGECCDVEDSTTCFNAKGPLLKKELSSFIDKGQELCADYSENTFTEYKKKLAERLKAKLPDATPTELAKLVNKHSDFASNCCSINSPPLYCDSEIDAELKNIL
# modifications: deglycosylated (GcMAF); complexed with calcitriol
# notes: comparative complex; same production method carried out with calcitriol instead of cholecalciferol
# B2: Gc-calcidiol: complex of vitamin D-binding protein (Gc) and calcidiol (protein, UniProt P02774 17-474, looked up)
# Vitamin D-binding protein: LERGRDYEKNKVCKEFSHLGKEDFTSLSLVLYSRKFPSGTFEQVSQLVKEVVSLTEACCAEGADPDCYDTRTSALSAKSCESNSPFPVHPGTAECCTKEGLERKLCMAALKHQPQEFPTYVEPTNDEICEAFRKDPKEYANQFMWEYSTNYGQAPLSLLVSYTKSYLSMVGSCCTSASPTVCFLKERLQLKHLSLLTTLSNRVCSQYAAYGEKKSRLSNLIKLAQKVPTADLEDVLPLAEDITNILSKCCESASEDCMAKELPEHTVKLCDNLSTKNSKFEDCCQEKTAMDVFVCTYFMPAAQLPELPDVELPTNKDVCDPGNTKVMDKYTFELSRRTHLPEVFLSKVLEPTLKSLGECCDVEDSTTCFNAKGPLLKKELSSFIDKGQELCADYSENTFTEYKKKLAERLKAKLPDATPTELAKLVNKHSDFASNCCSINSPPLYCDSEIDAELKNIL
# modifications: complexed with calcidiol
# B3: GcMAF, purchased from Metavectrum, Germany: GcMAF purchased from Metavectrum, Germany (protein, UniProt P02774 17-474, looked up)
# Vitamin D-binding protein: LERGRDYEKNKVCKEFSHLGKEDFTSLSLVLYSRKFPSGTFEQVSQLVKEVVSLTEACCAEGADPDCYDTRTSALSAKSCESNSPFPVHPGTAECCTKEGLERKLCMAALKHQPQEFPTYVEPTNDEICEAFRKDPKEYANQFMWEYSTNYGQAPLSLLVSYTKSYLSMVGSCCTSASPTVCFLKERLQLKHLSLLTTLSNRVCSQYAAYGEKKSRLSNLIKLAQKVPTADLEDVLPLAEDITNILSKCCESASEDCMAKELPEHTVKLCDNLSTKNSKFEDCCQEKTAMDVFVCTYFMPAAQLPELPDVELPTNKDVCDPGNTKVMDKYTFELSRRTHLPEVFLSKVLEPTLKSLGECCDVEDSTTCFNAKGPLLKKELSSFIDKGQELCADYSENTFTEYKKKLAERLKAKLPDATPTELAKLVNKHSDFASNCCSINSPPLYCDSEIDAELKNIL
# modifications: selectively deglycosylated (GcMAF)
# B4: GcMAF, produced as described: selectively deglycosylated vitamin D-binding protein, self-produced, with final filtration via a 100,000 Da filter (protein, UniProt P02774 17-474, looked up)
# Vitamin D-binding protein: LERGRDYEKNKVCKEFSHLGKEDFTSLSLVLYSRKFPSGTFEQVSQLVKEVVSLTEACCAEGADPDCYDTRTSALSAKSCESNSPFPVHPGTAECCTKEGLERKLCMAALKHQPQEFPTYVEPTNDEICEAFRKDPKEYANQFMWEYSTNYGQAPLSLLVSYTKSYLSMVGSCCTSASPTVCFLKERLQLKHLSLLTTLSNRVCSQYAAYGEKKSRLSNLIKLAQKVPTADLEDVLPLAEDITNILSKCCESASEDCMAKELPEHTVKLCDNLSTKNSKFEDCCQEKTAMDVFVCTYFMPAAQLPELPDVELPTNKDVCDPGNTKVMDKYTFELSRRTHLPEVFLSKVLEPTLKSLGECCDVEDSTTCFNAKGPLLKKELSSFIDKGQELCADYSENTFTEYKKKLAERLKAKLPDATPTELAKLVNKHSDFASNCCSINSPPLYCDSEIDAELKNIL
# modifications: selectively deglycosylated (GcMAF)
# B5: GcMAF-calciol: dimeric complex of a selectively deglycosylated vitamin D-binding protein (GcMAF) and cholecalciferol (calciol) (protein, UniProt P02774 17-474, looked up)
# Vitamin D-binding protein: LERGRDYEKNKVCKEFSHLGKEDFTSLSLVLYSRKFPSGTFEQVSQLVKEVVSLTEACCAEGADPDCYDTRTSALSAKSCESNSPFPVHPGTAECCTKEGLERKLCMAALKHQPQEFPTYVEPTNDEICEAFRKDPKEYANQFMWEYSTNYGQAPLSLLVSYTKSYLSMVGSCCTSASPTVCFLKERLQLKHLSLLTTLSNRVCSQYAAYGEKKSRLSNLIKLAQKVPTADLEDVLPLAEDITNILSKCCESASEDCMAKELPEHTVKLCDNLSTKNSKFEDCCQEKTAMDVFVCTYFMPAAQLPELPDVELPTNKDVCDPGNTKVMDKYTFELSRRTHLPEVFLSKVLEPTLKSLGECCDVEDSTTCFNAKGPLLKKELSSFIDKGQELCADYSENTFTEYKKKLAERLKAKLPDATPTELAKLVNKHSDFASNCCSINSPPLYCDSEIDAELKNIL
# modifications: deglycosylated (GcMAF); complexed with cholecalciferol
# Key:
# [1] = tested on: receptor sites of the ELISA test; assay: Binding to the receptor sites of the ELISA test for vitamin D; settings: ELISA test selective for calcidiol
# Source text: The standard test for vitamin D in the blood, the ELISA test, is selective for calcidiol (which has an OH group at position 25). […] The same applies for the complex GcMAF-calcitriol.
# [2] = tested on: monocytes from human whole blood; assay: Formation of superoxide radical anions; assay type: cell-based; parameters: Superoxide activity: unit not given here; settings: for Superoxide activity: test substance 50 pg/ml, 3 h incubation; for formation of superoxide radical anions (comparison in words): compared with the other substances tested
# Procedure: Determination of the formation of superoxide radical anions in monocytes from human whole blood was carried out as follows:
# Isolation of peripheral mononuclear cells is carried out by density gradient centrifugation from heparinized whole blood. The blood is diluted 1:2 with PBS (without Ca/Mg) and layered onto 15 ml of Histopaque-1077. After this, the cell suspension is centrifuged for 30 min at 700×g and 20° C. The interphase with the mononuclear cells is carefully removed with a Pasteur pipette, made up with 30 ml of PBS (without Ca/Mg), and centrifuged for 5 min at 350×g. The supernatant is decanted, and the cells are taken up in RPMI 1640 medium and counted in the flow cytometer. The cells are adjusted to 10^5 monocytes/ml. For the test batch, 1 ml of cell suspension is pipetted into each 5 ml tube. LPS 100 ng/ml is used as a control. The test substance (GcMAF, GcMAF-calciol or GcMAF-calcitriol) is used in a concentration of 50 pg/ml. The cells are incubated for a total of 3 h in the CO2 incubator. 15 min before the end of incubation, 5 μl each of CD45-V450 antibody and 1 μl of a 1 mM MitoSOX stock solution are added. After this, the cell suspension is made up with 2 ml each of RPMI medium and centrifuged for 5 min at 350×g at room temperature. The supernatant is decanted, and the cells are resuspended in 500 μl of RPMI medium. The cells are measured and analyzed in the flow cytometer. Evaluation is carried out based on the average fluorescence intensity, as described by Saharuddin Bin Mohamad, Hideko Nagasa Wa, Yoshihiro Uto, and Hitoshi Hori in “Preparation of Gc Protein-Derived Macrophage Activating Factor (GcMAF) and its Structural Characterization and Biological Activities”, Anticancer Research 22: 4297-4300 (2002).
# Superoxide formation assay
# The method used was a modified version of that described by Johnston et al. In brief, after three-hour treatment of the samples, the plates were washed twice with PBS (-) and once with Krebs-Ringer phosphate buffer, pH 7.4, 1.5 ml of 50 μM cytochrome C in Krebs-Ringer phosphate buffer was added, and phorbol myristate acetate (PMA) was added to a final concentration of 5 μg/ml in each well and cultured for 90 minutes in a moistened incubator.
# The reaction was stopped using an ice bath. The cultured medium was placed in an Eppendorf tube and centrifuged at 8000 g. The optical density of the supernatant was spectrometrically determined at 550 nm with reference at 540 nm (U-2000, Hitachi) using mixtures of plates without cells as a blank measurement. The concentration of reduced cytochrome C was determined using the equation E550nm=[…].
# Peritoneal mouse cells = assay: Phagocytosis activation (phagocytosis index, opsonized sheep red blood cells); assay type: cell-based; settings: for phagocytic activity (comparison in words): compared with GcMAF-calcitriol or GcMAF alone; for Macrophage activity: phagocytosis index, three hours of drug treatment, opsonized SRBC cultured for 90 minutes, 250 macrophages counted
# Procedure: Phagocytosis activation was determined as described by Hammarstrom S and Kabat EA in “Studies on specificity and binding properties of the blood group A reactive hemagglutinin from Helix pomatia”, Biochemistry 10: 1684-1692, 1971.
# Peritoneal mouse cells were coated in a 24-well plate onto cover glasses. After three hours of drug treatment, the cultures were tested for phagocytic activity. Sheep red blood cells (SRBC) were opsonized using hemolytic rabbit serum (anti-sheep red blood C12HSB cells, Serotec Ltd. England). Opsonized SRBC (0.5%) in RPMI 1640 (serum-free) were layered onto each macrophage-coated cover glass and cultured for 90 minutes. The non-internalized erythrocytes were lyzed by immersing the cover glass in a hypotonic solution (⅕ PBS). The macrophages were fixed with methanol, air-dried, and Giemsa stained. The number of phagocytosed erythrocytes per cell was microscopically determined; 250 macrophages were counted for each data point. The data are expressed as a phagocytosis index, which is defined as the percentage of macrophages with engulfed erythrocytes multiplied by the average number of erythrocytes per macrophage.
# Toxicity = assay: Toxicity
# Source text: (§1) The complex according to the invention can be orally administered. […] Moreover, the complex according to the invention is not toxic.
# [3] = Vitamin D content in the blood after oral administration; assay type: in vivo
# Source text: as §1
# monocytic cells = assay: Monocytic cells after oral administration; assay type: in vivo
Molecule,binding to the receptor sites of the ELISA test [1],Superoxide activity [2],phagocytic activity (comparison in words) (Peritoneal mouse cells),Macrophage activity (Peritoneal mouse cells),toxicity (Toxicity),"vitamin D content in the blood ([3]; 12 h after oral administration, 35.9 nM before administration) [nM]",absorption in oral administration ([3]; oral administration),"monocytic cells, subsequently converted into macrophages (monocytic cells)",formation of superoxide radical anions (comparison in words) [2],formation of superoxide radical anions (comparison in words) ([2]; listed as complex according to the invention)
B1,does not bind,188,virtually identical to the phagocytic activity of GcMAF alone,73.2,–,–,–,–,–,–
B2,does not bind,–,–,–,–,–,–,–,–,–
B3,–,150,–,68,–,–,–,–,–,–
B4,–,199,–,73.0,–,–,–,–,–,–
B5,does indeed bind,142,significantly higher,83.5,not toxic,44.25,absorbed by the body in oral administration,significant increase,lower,lowest of all of the substances tested
